What all share (experiment): ELISA on biotinylated peptide captured by streptavidin; A450 normalised to isotype control
Experiment [1] concerns the target mouse TREM2 truncated stalk peptide (aa 149-163) (mouse) (UniProt Q99NH8).
In experiment [2] the target is T1, human TREM2 truncated stalk peptide (aa 149-163) (human).
T1 sequence (peptide, biotinylated (site not stated)): SFEDAHVEHSISRSL

Experiment [3] addresses T2, human TREM2 full length stalk region peptide (aa 129-172) (human).
T2 sequence (peptide, biotinylated (site not stated)): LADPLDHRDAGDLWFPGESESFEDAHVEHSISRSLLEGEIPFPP

Numbering of substitutions follows the chain as printed.

B1: CL0020107 (antibody, V domains shown)
VH: QVQLQQPGAELVKPGASVKMSCRASGYTFTNYWISWVKQRPGQGLEWIGDIYPHSTSTNYNERFRSKATLTVDKSSTTAYMQLSSLTSEDSAVYYCAREGFGISAWGQGTTLTVSS
VL: QIVLTQSPAIMSASPGEKVTITCSATSSVSYMHWFQQKPGTSPKLWIYSTSNLASGVPARFSGSGSGTSHSLTISRMEAEDAATYYCQQRSSYPLTFGSGTKLELK
As for B1, the fold over background (A450) in experiment [1] turned out to be 1.6 fold.

B2: CL0020188 (antibody, V domains shown)
VH: EVKLLDSGGGLVQAGGSLRLSCAGSGFTFTDFYMSWIRQPPGKAPEWLGVIRNKANGYTAGYNPSVKGRFTISRDNTQNILYLQMNTLRAEDTAIYYCARLTYGFDYWGQGVMVTVSS
VL: DIVMTQGALPNPVPSGESASITCQSSKSLLHSNGKTYLNWYLQRPGQSPQLLIYWMSTRASGVSDRFSGSGSGTDFTLKISSVEAEDVGVYYCQQFLEYPFTFGSGTKLEIK
Turning to B2, the fold over background (A450) stood at 0.9 fold in experiment [1] and 3 fold in experiment [2].

B3: CL0020096 (antibody, V domains shown)
VH: QIQLVQSGPELRKPGETVKISCKASGYTFTTYGMSWVKQAPGKGLKWMGWINTYSGLPRHSDDFKGRFAFSLETSASTAYLQINNLKNEDTATYFCAREVYYGSRKTAWFAYWGQGTLVTVSA
VL: DLVMSQSPSSLAVSVGERVTMSCKSSQSLLYSNDQKNYLAWYQQIPGQSPKLLIYWASTRESGVPDRFTGSGSGTDFTLTISSVKAEDLAVYFCQQYYSYPPTFGAGTKLELK
Consider B3, for which the fold over background (A450) in experiment [1] was 1.3 fold; in experiment [2] it was 2.2 fold.

B4: CL0020124 (antibody, V domains shown)
VH: EVQLQQSGPVLVKPGASVKMSCKPSGYTFTDYYMNWVKQSHGKSLEWIGSINPYTGGSSYNQKFRGKATLTVDKSSSTAYMELNSLTSEDSAVYYCARGSYYSNLGFAYWGQGTLVTVSA
VL: DVQLTQSPSYLTASPGETITINCRASKSISKYLAWYQEKPGKTNKLLISSGSTLQSGIPSRFSGSGSGTDFTLTISSLEPEDFAMYYCQQYSEYPFTFGSGTKLEIK
Regarding B4, the fold over background (A450) in experiment [3] was determined as 2.1 fold; in experiment [1], 1.7 fold.

B5: CL0020141 (antibody, V domains shown)
VH: EVTLVESGGGLVQPGGSLRLSCATSGFTFTDYYMSWVRQPPGKALEWLGFIRDKANGYTTDYSASVKGRFTISRDNSQNILYLQMNTLRAEDSATYYCSRLLRAQGFAYWGQGTLVTVSA
VL: DIVMSQSPSSLGVSIGEKVIMSCTSGQSLLYSNNQKNYLAWYQQKPGQSPKLLIYWASTRESGVPDRFTGSGSGTDFTLTINSVKAEDLAVYYCQQYYRNPFTFGSGTKLEIK
Turning to B5, the fold over background (A450) in experiment [1] came to 1.4 fold; in experiment [2] it was 2.1 fold.

B6: CL0020308 (antibody, V domains shown)
VH: QVQLKQSGPSLVQPSQSLSITCTVSGFSLTTYGIHWVRQSPGKGLEWLGVIWTGGSTAFNAAFMSRLSITKDNSKSQVFFKMNSLQADDTAIYYCAKVGFHSATDYWGQGTSVTVSS
VL: DVLMTQTPLSLPVTLGDQASISCRSSQNLVHSNGNTYLEWYLQKPGQSPKLLIYKVSNRFSGVPDRFSGSGSGTDFTLKISRVEAEDLGLYYCFQGSHVPFTFGSGTKLEIK
In the case of B6, the fold over background (A450) amounted to 1.1 fold in experiment [1] and 2.5 fold in experiment [2].

B7: CL0020309 (antibody, V domains shown)
VH: B6 VH with T31S, I34V, H35Q, S56T, A58D, M64K, T90S, V98I, T104V
VL: B6 VL with T14S, L29I, S81N, V99I, K108Q
B7: the fold over background (A450) in experiment [1] turned out to be 1.3 fold; in experiment [2], 2.2 fold.
